{"source": "patent US20080119428A1", "about": "(ONCOTHERAPY SCIENCE, published 2008)", "binders": {"B1": {"name": "N-terminal FLAG-tagged and C-terminal HA-tagged IMS-E21 (URLC8) (enzyme)", "chain": "MILNSLSLCYHNKLILAPMVRVGTLPMRLLALDYGADIVYCEELIDLKMIQCKRVVNEVLSTVDFVAPDDRVVFRTCEREQNRVVFQMGTSDAERALAVARLVENDVAGIDVNMGCPKQYSTKGGMGAALLSDPDKIEKILSTLVKGTRRPVTCKIRILPSLEDTLSLVKRIERTGIAAIAVHGRKREERPQHPVSCEVIKAIADTLSIPVIANGGSHDHIQQYSDIEDFRQATAASSVMVARAAMWNPSIFLKEGLRPLEEVMQKYIRYAVQYDNHYTNTKYCLCQMLREQLESPQGRLLHAAQSSREICEAFGLGAFYEETTQELDAQQARLSAKTSEQTGEPAEDTSGVIKMAVKFDRRAYPAQITPKMCLLEWCRREKLAQPVYETVQRPLDRLFSSIVTVAEQKYQSTLWDKSKKLAEQAAAIVCLRSQGLPEGRLGEESPSLHKRKREAPDQDPGGPRAQELAQPGDLCKKPFVALGSGEESPLEGW", "notes": "Expressed from a pCAGGS vector in transfected LC319 cells; also called FLAG-tagged and HA-tagged-pCAGGS-IMS-E21; not shown: N-terminal FLAG tag; C-terminal HA tag"}}, "molecular_target": "T1, EPRS (glutamyl-prolyl tRNA synthetase) (UniProt P07814 1-1512)", "T1 construct": "Endogenous protein in LC319 cell lysate, identified by MALDI-TOF mass spectrometry as a 180-kDa band; also called 180-kDa band", "T1 sequence (P07814 whole entry)": "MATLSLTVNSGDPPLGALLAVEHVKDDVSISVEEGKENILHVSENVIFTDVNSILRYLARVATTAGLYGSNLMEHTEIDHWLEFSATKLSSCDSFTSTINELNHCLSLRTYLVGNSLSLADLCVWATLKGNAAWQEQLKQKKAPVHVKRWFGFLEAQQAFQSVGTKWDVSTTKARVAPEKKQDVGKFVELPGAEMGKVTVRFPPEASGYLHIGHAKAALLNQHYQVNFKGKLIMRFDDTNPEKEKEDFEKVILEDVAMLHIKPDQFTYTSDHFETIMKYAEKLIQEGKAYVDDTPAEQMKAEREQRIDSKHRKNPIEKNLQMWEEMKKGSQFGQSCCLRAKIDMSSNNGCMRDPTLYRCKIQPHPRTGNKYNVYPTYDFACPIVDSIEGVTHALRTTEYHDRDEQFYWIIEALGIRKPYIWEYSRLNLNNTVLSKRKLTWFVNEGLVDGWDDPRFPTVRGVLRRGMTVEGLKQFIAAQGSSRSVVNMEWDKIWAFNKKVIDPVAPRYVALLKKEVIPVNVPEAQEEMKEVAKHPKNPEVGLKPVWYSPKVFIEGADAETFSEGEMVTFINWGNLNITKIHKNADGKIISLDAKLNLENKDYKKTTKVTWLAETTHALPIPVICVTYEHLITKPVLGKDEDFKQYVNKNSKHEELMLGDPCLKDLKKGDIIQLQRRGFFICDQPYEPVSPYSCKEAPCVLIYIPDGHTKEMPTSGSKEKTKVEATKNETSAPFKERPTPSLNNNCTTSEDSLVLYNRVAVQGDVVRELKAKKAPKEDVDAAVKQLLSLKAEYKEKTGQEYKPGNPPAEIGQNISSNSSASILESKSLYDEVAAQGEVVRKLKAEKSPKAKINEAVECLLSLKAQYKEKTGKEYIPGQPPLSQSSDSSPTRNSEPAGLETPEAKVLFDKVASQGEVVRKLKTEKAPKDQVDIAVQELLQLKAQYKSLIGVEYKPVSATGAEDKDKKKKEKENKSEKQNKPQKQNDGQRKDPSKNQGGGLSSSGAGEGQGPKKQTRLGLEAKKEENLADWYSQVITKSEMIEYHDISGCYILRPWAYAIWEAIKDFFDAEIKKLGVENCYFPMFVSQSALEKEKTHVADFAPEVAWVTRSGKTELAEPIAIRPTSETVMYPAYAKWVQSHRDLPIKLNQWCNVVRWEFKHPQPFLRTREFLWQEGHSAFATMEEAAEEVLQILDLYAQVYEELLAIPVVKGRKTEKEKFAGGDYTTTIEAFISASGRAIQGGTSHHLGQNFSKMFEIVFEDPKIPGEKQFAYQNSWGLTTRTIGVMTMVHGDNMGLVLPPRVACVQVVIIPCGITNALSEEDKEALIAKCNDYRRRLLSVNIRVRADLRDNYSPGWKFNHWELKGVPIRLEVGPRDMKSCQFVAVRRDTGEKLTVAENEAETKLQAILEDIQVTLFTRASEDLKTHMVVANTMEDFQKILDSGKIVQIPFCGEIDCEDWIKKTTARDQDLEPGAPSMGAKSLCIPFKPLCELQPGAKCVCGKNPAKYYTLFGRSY", "assay": "tandem immunoprecipitation (anti-FLAG M2, then anti-HA) from transfected LC319 lysate, silver-stained SDS-PAGE, MALDI-TOF MS", "procedure": "Cell extracts from lung-cancer cell line LC319 transfected with the plasmids expressing N-terminal FLAG-tagged and C-terminal HA-tagged-pCAGGS-IMS-E21 (URLC8) vector or mock vector (control) were pre-cleared by incubation at 4° C. for 1 hour with 100 μL of protein G-agarose beads in a final volume of 2 ml of IP-buffer (0.5% NP-40, 50 mM Tris-HCl, 150 mM NaCl) in the presence of proteinase inhibitor. After centrifugation at 1000 rpm for 5 min at 4° C., the supernatant was incubated at 4° C. with anti-Flag M2 agarose for 2 hours. The beads were then collected by centrifugation at 5000 rpm for 2 min and washed six times with 1 ml of each immunoprecipitation buffer. Then, the washed beads were eluted by Flag-peptide (Sigma-Aldrich Co., St. Louis, Mo.). The elution was incubated at 4° C. with anti-HA agarose for 2 hours. The washed beads were resuspended in 50 μL of Laemmli sample buffer and boiled for 5 min, and the proteins were separated by 5-10% SDS PAGE gels (BIO RAD). After electrophoresis, the gels were stained with silver. Protein bands specifically found in IMS-E21 (URLC8)- transfected extracts were excised and served for matrix-assisted laser desorption/ionization-time of flight mass spectrometry (MALDI-TOF-MS) analysis (AXIMA-CFR plus, SHIMADZU BIOTECH, Kyoto, Japan). […]"}
{"binder": "B1", "values": [{"measurement": "binding result", "value": "binds"}]}
